Experiment [1] deals with cynomolgus LRP6 (cynomolgus). The experiment is described as follows: FACS on HEK293T/17 cells transiently transfected with cynomolgus LRP6.
A further experiment deals with human LRP6 (human) (UniProt O75581).
Sequence of human LRP6 (human) (O75581 20-1613): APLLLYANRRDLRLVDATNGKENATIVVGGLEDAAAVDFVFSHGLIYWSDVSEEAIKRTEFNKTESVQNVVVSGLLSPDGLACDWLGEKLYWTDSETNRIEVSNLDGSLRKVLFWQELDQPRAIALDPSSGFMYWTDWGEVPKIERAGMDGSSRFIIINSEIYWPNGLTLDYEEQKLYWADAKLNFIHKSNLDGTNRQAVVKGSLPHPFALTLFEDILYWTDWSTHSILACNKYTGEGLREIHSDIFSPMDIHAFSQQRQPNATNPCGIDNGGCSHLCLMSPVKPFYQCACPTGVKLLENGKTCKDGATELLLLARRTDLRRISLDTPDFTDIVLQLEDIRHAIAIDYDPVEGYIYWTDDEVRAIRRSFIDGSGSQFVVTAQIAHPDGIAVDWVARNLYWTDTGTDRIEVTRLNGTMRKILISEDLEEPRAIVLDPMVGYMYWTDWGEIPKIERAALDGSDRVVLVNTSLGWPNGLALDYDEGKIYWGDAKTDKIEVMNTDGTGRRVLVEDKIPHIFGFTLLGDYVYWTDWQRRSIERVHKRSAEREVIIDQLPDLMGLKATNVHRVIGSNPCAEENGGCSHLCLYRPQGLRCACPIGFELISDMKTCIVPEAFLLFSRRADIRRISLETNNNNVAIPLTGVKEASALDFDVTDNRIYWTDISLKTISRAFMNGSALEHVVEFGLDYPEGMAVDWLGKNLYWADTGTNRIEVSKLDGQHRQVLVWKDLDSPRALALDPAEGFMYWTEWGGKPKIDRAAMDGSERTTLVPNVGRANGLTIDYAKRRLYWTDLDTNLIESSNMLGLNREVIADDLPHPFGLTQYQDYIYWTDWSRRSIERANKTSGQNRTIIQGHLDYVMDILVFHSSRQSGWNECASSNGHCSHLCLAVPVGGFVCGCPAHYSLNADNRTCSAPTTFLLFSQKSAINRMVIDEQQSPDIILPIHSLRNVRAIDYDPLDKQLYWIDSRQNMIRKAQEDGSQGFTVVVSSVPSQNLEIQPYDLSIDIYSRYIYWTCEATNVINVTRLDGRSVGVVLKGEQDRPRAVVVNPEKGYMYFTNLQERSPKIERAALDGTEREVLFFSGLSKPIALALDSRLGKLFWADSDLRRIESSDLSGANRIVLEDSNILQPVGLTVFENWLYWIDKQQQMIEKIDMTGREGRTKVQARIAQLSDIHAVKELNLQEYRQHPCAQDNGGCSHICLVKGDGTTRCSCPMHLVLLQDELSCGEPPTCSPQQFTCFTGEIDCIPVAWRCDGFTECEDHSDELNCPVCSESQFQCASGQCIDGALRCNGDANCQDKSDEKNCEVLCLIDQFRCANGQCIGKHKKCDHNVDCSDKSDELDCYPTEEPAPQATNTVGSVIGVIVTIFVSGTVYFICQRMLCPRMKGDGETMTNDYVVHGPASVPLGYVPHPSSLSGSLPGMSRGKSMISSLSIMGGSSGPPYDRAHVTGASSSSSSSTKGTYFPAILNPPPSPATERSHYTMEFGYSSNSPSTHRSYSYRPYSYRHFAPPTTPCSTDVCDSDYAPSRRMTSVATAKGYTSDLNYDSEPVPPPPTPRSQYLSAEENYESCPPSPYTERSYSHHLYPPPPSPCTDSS

B1: MOR08545 Fab (Fab, V domains shown)
VH: QVQLVESGGGLVQPGGSLRLSCAASGFTFSVNGMHWVRQAPGKGLEWVSVIDGMGHTYYADSVKGRFTISRDNSKNTLYLQMNSLRAEDTAVYYCARYDYIKYGAFDPWGQGTLVTVSS
VL: DIELTQPPSVSVAPGQTARISCSGDNIGSKYVHWYQQKPGQAPVLVIYGDSNRPSGIPERFSGSNSGNTATLTISGTQAEDEADYYCTRTSTPISGVFGGGTKLTVLG
B1: the 50% effective concentration (EC50) in experiment [1] was determined as 300 pM.

B2: MOR06475 Fab (Fab, V domains shown)
VH: QVQLKESGPALVKPTQTLTLTCTFSGFSLSNRGGGVGWIRQPPGKALEWLAWIDWDDDKSYSTSLKTRLTISKDTSKNQVVLTMTNMDPVDTATYYCARMHLPLVFDSWGQGTLVTVSS
VL: DIVLTQSPATLSLSPGERATLSCRASQFIGSRYLAWYQQKPGQAPRLLIYGASNRATGVPARFSGSGSGTDFTLTISSLEPEDFATYYCQQYYDYPQTFGQGTKVEIK
B2 showed a 50% effective concentration (EC50) in experiment [1] of 220 pM.

B3: MOR06706 Fab (Fab, V domains shown)
VH: QVQLVESGGGLVQPGGSLRLSCAASGFTFSDYAIHWVRQAPGKGLEWVSGISYSGSSTHYADSVKGRFTISRDNSKNTLYLQMNSLRAEDTAVYYCARGSHGNIMAKRYFDFWGQGTLVTVSS
VL: DIELTQPPSVSVAPGQTARISCSGDNIRKKYVYWYQQKPGQAPVLVIYEDSKRPSGIPERFSGSNSGNTATLTISGTQAEDEADYYCSTADSGINNGVFGGGTKLTVL
B3: the EC50 in experiment [1] is 460 pM.

B4: scFv08168-D7 (scFv, part only; not given: Linker and His tag, V domains shown, not shown: another chain or arm of the molecule; small tags and cut ends)
VH: QVQLVESGGGLVQPGGSLRLSCAASGFTFSDYVMNWVRQAPGKGLEWVSGISWSGVNTHYADSVKGRFTISRDNSKNTLYLQMNSLRAEDTAVYYCARLGATANNIRYKFMDVWGQGTLVTVSS
VL: DIELTQPPSVSVAPGQTARITCSGDSLRNKVYWYQQKPGQAPVLVIYKNNRPSGIPERFSGSNSGNTATLTISGTQAEDEADYYCQSYDGQKSLVFGGGTKLTVL
In the case of B4, the IC50 by STF assay for Wnt1 inhibition in the experiment with human LRP6 (human) was determined as 4810 pM.

B5: scFv08168-D6 (scFv, part only; not given: Linker and His tag, V domains shown, not shown: another chain or arm of the molecule; small tags and cut ends)
VH: QVQLVESGGGLVQPGGSLRLSCAASGFTFSDYVMNWVRQAPGKGLEWISGISWSGVNTHYADSVKGRFTISRDNSKNTLYLQMNSLRAEDTAVYYCARLGATANNIRYKFMDVWGQGTLVTVSS
VL: DIELTQPPSVSVAPGQTARISCSGDSLRNKVYWYQQKPGQAPVLVIYKNNRPSGIPERFSGSNSGNTATLTISGTQAEDEADYYCQSYDGQKSLVFGGGTKLTVL
For the molecule B5, the IC50 by STF assay for Wnt1 inhibition in the experiment with human LRP6 (human) stood at 740 pM.

B6: MOR08168 Fab (Fab, V domains shown)
VH: QVQLVESGGGLVQPGGSLRLSCAASGFTFSDYVINWVRQAPGKGLEWVSGISWSGVNTHYADSVKGRFTISRDNSKNTLYLQMNSLRAEDTAVYYCARLGATANNIRYKFMDVWGQGTLVTVSS
VL: DIELTQPPSVSVAPGQTARISCSGDSLRNKVYWYQQKPGQAPVLVIYKNNRPSGIPERFSGSNSGNTATLTISGTQAEDEADYYCQSYDGQKSLVFGGGTKLTVL
Molecule B6 showed an EC50 in experiment [1] of 880 pM.

B7: scFv08168-D9 (scFv, part only; not given: Linker and His tag, V domains shown, not shown: another chain or arm of the molecule; small tags and cut ends)
VH: QVQLVESGGGLVQPGGSLRLSCAASGFTFSDYVMNWVRQAPGKGLEWVSGISWSGVNTHYADSVKGRFTISRDNSKNTLYLQMNSLRAEDTAVYYCARLGATANNIRYKFMDVWGQGTLVTVSS
VL: DIELTQPPSVSVAPGQTARISCSGDSLRNKVYWYQQKPGQAPVLVIYKNNRPSGIPERFSVSNSGNTATLTISGTQAEDEADYYCQSYDGQKSLVFGGGTKLTVL
On to B7, for which the IC50 by STF assay for Wnt1 inhibition with human LRP6 (human) worked out at 11100 pM.

Broadly, the EC50 is the concentration needed to bring the measured effect to its halfway point.

The values above are taken from patent US20130058934A1.
